Assay: yeast display, Sf9 membrane polyspecificity reagent, FACS + sequencing; frameworks hold sequencing errors
Procedure, shortened: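 Polyreactivity labels are assigned by the sorting gate from which each nanobody was recovered. The gates were low and high (top ~1%), set on anti-HA fluorescence for expression and streptavidin fluorescence for reagent binding. Before sorting, galactose-induced (36–48 hours) yeast display cells were stained for 1 hour at 4 °C with 10% biotinylated, detergent-solubilized Sf9 membrane reagent.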

| Sequence | polyreactivity (PSR sort gate) |
| --- | --- |
| QVQLEESGGGLVQAGGSLRLSCAASGSTFYSYVMGWYRQAPGKERELVAAISSIGGSTYYADSVKGRFTISRDNAKNTVYLQMNSLKPEDTAVYYCAAEPPGSTYEGGYWGQGTQVTVSS | low polyreactivity |
| QVQLVESGGGLVQAGGSLRLSCAASGSTFTYYAMGWYRQAPGKERELVAAITSGGSTYYADSVKGRFTISRDNAKNTVYLQMNSLKPEDTAVYYCNRGSWRYSTMEYWGQGTQVTVSS | high polyreactivity |
| QVQLVESGGGLVQAGGSLRLSCAASGSIFWVYVLGWYRQAPGKERELVAAITNGGSTDYADSVKGRFTISRDNAKNTVYLQMNSLKPEDTAVYYCAKRSTIWGRILITYDYWGQGTQVTVSS | low polyreactivity |
| QVQLVESGGGLVQARVSLRLSCAASGITFRYYAMGWYRQAPGKERELVAAITRGGGSTYYADSVKGRFTISRDNAKNTVYLQMNSLKPEDTAVYYCAAAGSRYAWGYGYWGQGTQVTVSS | high polyreactivity |
| QVQLVESGGGLVQAGGSLRLSCAASGFTIWAYTMGCYRQAPGKEREFVADITSRGGSTFYADSVKGRFTISRDNAKNTVYLQMNSLKPEDTAVDYCAAEGFDTRMYYWGQGTQVTVSS | high polyreactivity |
| QVHLVESGGGLVQAGGSLRLICAASGYIFPYYSMGWYRQAPGKERELVAGITTDGSSTYYADSVKGRFTISRDNAKKTVYLQMNSLKPEDTAVYYCYGYPGYTWGWYDFWGQGSQVTVSS | low polyreactivity |
| QVQLVESGGGLVQAGGSLRLSCAASGRIFPRYAMGWYRQAPGKERELVASISGTGSRTYYADSVKGRFTISRDNAKNTVYLQMNSLKPEDTAVYYCAAYSFRKLDYYWGQGTQVTVSS | high polyreactivity |
| QVQLVESGGGLVQAGGSLRLSCAASGRTFSVNVMGWYRQAPGKERELVAAISWSGGNTYYADSVKGRFTISRDNAKNTVYLQMNSLKPEDTAVYYCNTDFADSNYDSSYGYWGQGTQVTVSS | low polyreactivity |
| QVQLVESGGGLVQAGGSLRLSCAASGSIFVYYTMGWYRQAPGKERELVAAISISGTSTYYADSVKGRFTNSRDNAKNTVYLQMNSLKPEDTAVYYCAADTYYGEDYWGQGTQVTVSS | low polyreactivity |
| QVQLVDSGGGLVQAGGSLRLSCAASGSIFYYYAMVWYRQAPGKERELVAAISRNGGSTSYADSVKGRFTISRDNAKNTVYLQMNSLKPEDTAVYYCAVRKFHYFRYEYWGQGTQVTVSS | low polyreactivity |
| QVQLVESGGGLVQAGGSLRLSCAASGSIVWYNAMGWYRPAPGKERELVAAITWSGGSTYYADSVKGRFTISRDNAKNTVYLQMNSLKPEDTAVYYCAADVKRDRVWGGDYWGQGTQVTVSS | low polyreactivity |
| QVQLVESGGGLVQAGGSLRLSCAASGSIFAKYAMGWYRQAPGKERELVAAITGSGGSTYYADSVKGRFTISRDNAKNTVYLQMNSVKPEDTAVYYCAKRRPRYTYNYWGQGTQVTVSS | high polyreactivity |
| QVQLVESGGGLVQAGGSLRLSCAASGSTFDINTMGWYRQAPGKEREFVAAITDSDDSTYYADSVKGRFTISRDNAKNTVYLQMNSLKPEDTAVYYCAHDYDGYVWDTEYDYWGQGTQVTVSS | low polyreactivity |
| QVQLVESGGGLVQAGGSLRIICAASGSIFVEYAMGWYRQAPGKERELVAAITYRGGSTYYADSVKGRFTISRDNAENTVYLQMNSLKPEDTAVYYCAAAVYYWGTSAYEYWGQGTQVTVSS | low polyreactivity |
| QVQLVESGGGLVQAGRSLRLSCAASGRIFVPYVMGWYRQAPGKERELVASISDSDTSTYYADSVKGRFTISRDNAKNTVYVQMNSLKPEDTAVYYCNVDYWGQGTQVTVSS | low polyreactivity |
| QVQLVEAGGGLVQAGGSLRLTCAASVRTFTGYAMGCYRQAPGTERELVAAMTLSGGSTYYADSVKGRFTISRDNAKNTVYLQMNSLKPEDTAVFYCAAKWWHFYPYDYWGQGTQVTVSS | high polyreactivity |
| QVQLVESGGGLVQAGGSLRLSCAASGRIFTSNAMGWYRQAPGKERELVAAINRSGGRTYYADSVKGRFTISRDNAKNTVYLQMNSLKPEDTAVYYCNKVPYVFGFAASDYWGQGTQVTVSS | high polyreactivity |
| QVQLVESGGGLVQAGGSLRLSCAASGFTFYRYTMGWYRQAPGKERELVAAISRRGGRTYYADSVKGRFTISRDYAKNSVYLQMNSLKPEDTAVYYCAADSAAYVFGEAYDYWGKGTQVTVSS | high polyreactivity |
| QLQLVESGGGLVQAGGSLRLSCAASGRIFGVYVMGLYRQAPGKERELVAAISWSGSHTYYADSVKGRFTISRDNAKNTVYLQMNSLKPEDTAVYYCNADSYPDYTGPGLDWYDYWGQGTQVTVSS | low polyreactivity |
| QVQLVESVGGLVQAGGSLRLSCAASGGIFNGYAMGWYRQAPGKERELVAAITASGARTYYADSVKGRFTISRDNAKNTVYLQMNSLKPEDTAVYYCAKGFSYPGGPYYYFLGYGYWGQGTQVTVSS | high polyreactivity |
| QVQLVESGGGLVQAGGSLRLSCAASGFTFRANGMGWYRQAPGKETELVATITSGGTTNYADSVKGRFTISRDNAKNTVYLQMNSLKPEDTAVYYCAKRFGPAYFRLYDYWGQGTQVTVSS | low polyreactivity |
| QVQLVESVGGLVQAGGSLRLSCAASGITFSTNAMGWYRQAPGKERELVAAITSVTSTYYADSVKGRFTISRDNAKNTVYLQMNSLKPEDTAVYYCASRLSRWPYFYEYNYWGQGTQVTVSS | low polyreactivity |

| Sequence | polyreactivity (PSR sort gate) |
| --- | --- |
| QVQLVESGGGLVQAGGSLRLSCAASGFTIFYYAMGWYRQAPGKERELVASISWSGGSTYYADSVMGRFTISRENAKNSVYLQMNSLKPEDTAVYYCAADVPFGGDYWGQGTQVTVSS | low polyreactivity |
| QDQLVDSGGGLVQAGGSLRLSCAASGYIFDRYAMGWYRQEPGKERELVAAISGRGGSTYYADSVKGRFTISRDNAKNTVYLQMYSLKREDTAVYYCARDVYVRNGQRARFDSWGQGTQVTVSS | high polyreactivity |
| QVQLVESGGGLVQAGGSLRLSCAASGIIFRDNAMGWYRQAPGTERELVAAIDSSGGTTYADSVKGRFTISRDNAKNTVYLQMNSLKPEDTAVYYCATEVYSTVSYYGYDYYGRNYYYWGQGPQVTVSS | low polyreactivity |
| QVQLVESGGGLVQAGGSLRLSCAASGSTFATNTMGWYRQAPGKERELVARITSSDGSTTYADSVKGRFTISRDNAKNTDYLQMNSLKPEDTAVYYCAAAYGRRWGYDYWGQGTQVTVSS | low polyreactivity |
| QVQLVESGGGLVQAGGSLRLSCAASGRTFRNNAMGWYRQAPGKERELVAAISRTGGRTYYADSVKGRFTISRDNAKNTVYLQMNSLKPEDTAVYYCNAAYLVREYDYWGQGTQVTVSS | high polyreactivity |
| QVQLVESGGGLVQAGGSLRLSCAASGRTFNAYAMGWYRQAPGKERELVAAITWSGGSTYYAHSVKGRFTISRDNAKNTVYLQMNSLKPEDTAVYYCAARSFTNIRSVSSPYRYYYWGQGTQVTVSS | high polyreactivity |
| QVQLVESGGGLVQAGGSLRLSCAGSGFILGYNAMGWYRQAPGKERELVAVIDSIGDGTYYADSVKGRFTISRDNAKNTVYLQMISLKPEDTAVYYCDVDDYYEMDYWGQGTQVTVSS | low polyreactivity |
| QVQLVESGGGLVQAGGSLRLSCAASGRTIDSYAMGWSRQAPGKEREFVAAISYSGTSTYYADSVKGRFTISRDNAKNTVYLQMNSLKPEDTAVYYCSKEYNFRLWGQGTQVTVSS | low polyreactivity |
| QVQLVESGGGLVQAGGSLRLSCAASGSTFNFNAMGWYRQAPGKERELVAAISFSGGSTYYADSVKGRFTISRDNAKNTVYLQMNSLKPEDTAVYYCRPYSRGYGYWGQGTQVTVSS | high polyreactivity |
| QVQLVESGGGLVQAGGSLRLSCAASGRIFASYAMGWYRQAPGKERELVASISKSVGRTYYSDSVKGRFTISRDNAKNTVYLQMNSLKPEDTAVYDCAAISYFPLRTRYERWFYYWGQGTQVTVSS | high polyreactivity |
| QVQLVESGGGLVQAGGSLRLSCAASGSTFLTYAMGWYRQAPGKERELVAGISYSTGSTYYADSVKGRFTISRDNAKNTVYLQMHSLKPEDTAVYYCAADEWDGLRYYYYFNYEYWGQGTQVTVSS | low polyreactivity |
| QVQLVESGGGLVQAGGSLRLSCAASGSTFFLYAMGWYRQAAGKERELVAAISVSGGSTRYADSVNGRFTISRDHAKNTVYLQMNSLKPEDTAVYYCAAASRLEYSHATLYYWGQGTQVTVSS | high polyreactivity |
| QVQLVESGGGLVQAGGSLSLSCAASGRIFYGYAMGWYRLAPGKERELVAAIRTSGGSTYYADSVKGRFTISRDNAKNTVYLQMNSLKPEDTAVYYCNAGIVPRNRYYTPYNYWGQGTQVTVSS | low polyreactivity |
| HVQLVESGGGLVQPGGSLRLSCAASGLTFPSYAMGWYRQAPGKERELVAAISSGDSTNYADSVKGRFTISRDNAKNTVYLQMNSLKPEDTAVYYCAVGLPHGGRSLYGSWYRFDYWGQGTQVTVSS | low polyreactivity |
| QVQLVESGGGLVQAGGSLRLSCAASGRTFNTYAMGWYRQAPGKERELVAAISSGRRTYYADSVKGRFTISRDNAKNTVYLQMNSLKPEDTAVYYCAKRGRYSYKYDYWGQGTQVTVSS | high polyreactivity |
| QVQLVESGGGLVQAGGSLRLSCAASGFIFYKYAMGWYRQAPGKERELVAAISRSGSTYYADSVKGRFTISRDNAKNTVYLQMNSLKPDDTAVYYCNALTYFKRSEYYWGQGTQVTVSS | high polyreactivity |
| QVQLVESGGGLVQAGGSLRLSCAASGITFRYYAMGWYRQAPGKERELVAVISTSGGSTYYADSVKGRFTISRDNAKNTVYLQMNSLKPEDTAVYYCAVVWPYSERYYYWGQGTQVTVSS | high polyreactivity |
| QVQLVESGGGLVQAGGSLRLSCAASGRIFAVYAMGWYRQAPGKEREFVAAISYSGGITYYADSVKGRFTISRDTAKNTVYLQMNSLKPEDTAVYYCNAYYYFWGQGTQVTVSS | low polyreactivity |
| QFQLVESGGGLVQAGGSLRLSCAASGIISSVYAMGWYRQAPGKERELVAAISGSGGSTYYADSVKGRFTISRDNAKNTVYLQMNSLKPEDTAVYYCAKGYQYQGNSYGYWGQGTQVTVSS | low polyreactivity |
| QVQLVESGGGLVQAGGSLRLSCAASGSIFPPYAMGWYRQAPGKERELVATITIRGGSTYYADSVKGRFTISRDNAKNTVYLQMNSLKPEDTAVYYCAADYTKYYRRYYYWGQGTQVTVSS | high polyreactivity |
| QVQLVESGGGLVQAGGSLRLSCAASGFIFLGNAMGWYRQAPGKERELVAAISSGGSTYADSVKGRFTISRDNAKNTVYLQMNSLKPEDTAVYYCAVDRAFRAQNYHEYDYWGQGTQVNVSS | low polyreactivity |

From the nanobody polyreactivity screen of Harvey et al. (2022)
